Measured values reported in the DeepSol protein solubility set.

Experiment: soluble on expression in E. coli; label from the status in PepcDB or PDB records

Row | Sequence | soluble on expression in E. coli
1 | MNNSINHKFHHISRAEYQELLAVSRGDAVADYIIDNVSILDLINGGEISGPIVIKGRYIAGVGAEYTDAPALQRIDARGATAVPGFIDAHLHIESSMMTPVTFETATLPRGLTTVICDPHEIVNVMGEAGFAWFARCAEQARQNQYLQVSSCVPALEGCDVNGASFTLEQMLAWRDHPQVTGLAEMMDYPGVISGQNALLDKLDAFRHLTLDGHCPGLGGKELNAYITAGIENCHESYQLEEGRRKLQLGMSLMIREGSAARNLNALAPLINEFNSPQCMLCTDDRNPWEIAHEGHIDALIRRLIEQHNVPLHVAYRVASWSTARHFGLNHLGLLAPGKQADIVLLSDARKVTVQQVLVKGEPIDAQTLQAEESARLAQSAPPYGNTIARQPVSASDFALQFTPGKRYRVIDVIHNELITHSHSSVYSENGFDRDDVSFIAVLERYGQRLAPACGLLGGFGLNEGALAATVSHDSHNIVVIGRSAEEMALAVNQVIQDGGGLCVVRNGQVQSHLPLPIAGLMSTDTAQSLAEQIDALKAAARECGPLPDEPFIQMAFLSLPVIPALKLTSQGLFDGEKFAFTTLEVTELEHHHHHH | soluble
2 | MGSDKIHHHHHHMKTEIVEIESECLKDNFLKDDWKRQILVYRPDDAEGGLPLFIELAGTNWRPRTHNKFSLIIEKLFSSGLKAVVLNPNFSTRYNMNQYLNSPAVGSYEDFIVKELIPYFKDKYGTDHTALFGKSSGGFGSYTLAARHPDIIDGFADHFGDSCFFYLYADDMAAAFRYIQRHGKSESVKMLTSHMPSDDEMKVLNVIGSSAFYSPDMNDVNGFDLPFDEDTGELIEDVWQRWVQFDPAKNVLKYSGALKKMKAIYLDVGTNDEYKLYIGTRALHKKLGLANIDHYYEEFNGGHFGNSERYLYSLPFLYRKLNDTA | not soluble
3 | MGSDKIHHHHHHMTNDAIVIGSGIGGLVTATQLAAKGAKVLVLERYLIPGGSAGYFERQGYRFDVGASMIFGLGQNGTTNLLTRALTAVNVSQDAIADPVQIHYHLPQGLDLKVDRVYEKFLQNLIAHFPHEEKGIRRFYDECQKVFKCLNSMDLLSLEEPWYLLRVFFQHPLACLGLVKYLPQNAGDFARRYIKDPKLLKFIDMECYCWSVVPSDMTPMINAGMVFSDRHYGGVNYPKGGVGQIAQKLVEGLEKAGGKIQYKARVTKILTEKGKAVGVQLANGKVYRGKRIVSNATRWDTFEQLLPAEEMPLNEKKWQQNYQKSPSFLSLHIGVKESVLPVGTECHHILLEGWEKMTAVEGTIFVSIPTLLDPDLAPSGYHIIHAFTPHWIDDWQELSPSEYKAKKEEAAGRIIDRLEKIFPGLDAGLDYLEVGTPRTHRRFLGRQDGSYGPIPRRKLRGLLKMPFNRTAIPGLYCVGDSTFPGQGLNAVAFSGFACAHRIAVDLGF | not soluble
4 | IHDDPVEQRDADVAMEKSHRARNERKKNKNHTPSEHPAAAAMHEEKKKVSIEDLVAAVVIEDDPQPEPDVVPTPADDDVMDIVSAALDRAYEEDPDEPSGSDYLPLEEKPQTYAEAVEEFERSPRRKRKTRGNSVSDVPPRKADFEKPEPQPEPEVVVEKVSSRGRRRAVRRTVVEATPEVVAPTETVESSRGRRRAVRKKMAPQPVQTEAVVEDKHEVSAPSQGGRGRRRASRRAPRR | not soluble
5 | GSHMKDYSLEIDAVMKAAQINDTNNFVQALMRWHFSKETGSPFWLGMREQLNFDPIKDVKTINDLRQFSDISHCLRQEPVANLVPQGLPADSHPQVYESGGTTGAPKYVVAYDAWIEALISWRMSGYQHRPGRPSGNTLAAIPTGPHIVGAINKERALRLGGMFFSIDIDPRWVKRSLSEGDTATVRKYTHHLVDQVQNTLMNQDIRFLVTTPPVLRELLKRPEVVLQMKQSLAQITLGGTELNLDEIKFIASEILPDCEFSASYGSTSALGVSRSLLITSESQQVIYDSFSPFITYDVVDSITAQTVEYGERGNVIVTHLSPWAFYPRVAERDTAIRLPGVSGFAGDRLADIEPLKISEGRKVIEGVY | soluble
6 | MSLNAEEKKGLQRAIEEITEIAKGFGLDFYPMRYEICPAEIIYTFGAYGMPTRFSHWSFGKQFHKMKLHYDLGLSKIYELVINSDPCYAFLLDSNSLIQNKLIVAHVLAHCDFFKNNCRFQNTKRDMVESMAATAERIKHYEQVHGIKEVESFLDAILSIQEHIDPSLVRPKLQWSVDDEEEEIEEAATPYDDLWSLDEKKPKKQVKKSKKPFPPRPEKDILLFIEEHSRELEPWQRDILTMMREEMLYFWPQLETKIMNEGWASYWHQRIIRELDLTSDEAIEFAKLNAGVVQPSKTGINPYYLGLKIFEDIEKRYNNPTEEMKKMGVQPDSGREKMFEVREIESDISFIRNYLTKELVMREDLYLFQKQGRDYKIIDKQWKSVRDQLVSMRVNGGFPYLTVNDGDYMKNNELYIKHWYEGIELDLKYLEKVLPYLFQLWGRSVHIESVLEDKEVMFSYDGKGVHRRYLEGHHHHHH | not soluble
7 | MGSDKIHHHHHHMTLPISVFIITKNEEKHIAKTLASVKDMDEVILVDSGSTDKTLSIAQQFGATIFSHEWQGYAKQKQYAMSLCRNEWVLNLDGDEAINPQLIAAFKEIIEQDKADSVRFWRNDIFIGKPLSSLSKKPNNHRLYKKSKSFFDDSRLAHESATVDGKEIFINQVFDHYGYDSIAAITNKNNTYSTLKADEKFVKGKSFSHLKLFLIFPLVFIKEYLLQRKLFSGRRGFILAVMEAYYAFLKEAKLFENHQNKPN | not soluble
8 | MGSDKIHHHHHHMIVEKRRFPSPSQHVRLYTICYLSNGLRVKGLLAEPAEPGQYDGFLYLRGGIKSVGMVRPGRIIQFASQGFVVFAPFYRGNQGGEGNEDFAGEDREDAFSAFRLLQQHPNVKKDRIHIFGFSRGGIMGMLTAIEMGGQAASFVSWGGVSDMILTYEERQDLRRMMKRVIGGTPKKVPEEYQWRTPFDQVNKIQAPVLLIHGEKDQNVSIQHSYLLEEKLKQLHKPVETWYYSTFTHYFPPKENRRIVRQLTQWMKNR | not soluble
9 | MKYSSIFSMLSFFILFACNETAVYGSDENIIFMRYVEKLHLDKYSVKNTVKTETMAIQLAEIYVRYRYGERIAEEEKPYLITELPDSWVVEGAKLPYEVAGGVFIIEINKKNGCVLNFLHSKLEHHHHHH | not soluble
10 | MTIRVAINGFGRIGRNFLRCWFGRQNTDLEVVAINNTSDARTAAHLLEYDSVLGRFNADISYDENSITVNGKTMKIVCDRNPLNLPWKEWDIDLVIESTGVFVTAEGASKHIQAGAKKVLITAPGKAEGVGTYVIGVNDSEYRHEDFAVISNASCTTNCLAPVAKVLHDNFGIIKGTMTTTHSYTLDQRILDASHRDLRRARAAAVNIVPTTTGAAKAVALVIPELKGKLNGIALRVPTPNVSVVDLVVQVEKPTITEQVNEVLQKASQTTMKGIIKYSDLPLVSSDFRGTDESSIVDSSLTLVMDGDLVKVIAWYDNEWGYSQRVVDLAELAARKSGRLGLVQTLLISSQDSLPLTGGFFVAKREHPRSQDSINPSGPD | soluble
11 | VEGAVKTEPVDLFHPGFLNSSNYRIPALFKTKEGTLIASIDARRHGGADAPNNDIDTAVRRSEDGGKTWDEGQIIMDYPDKSSVIDTTLIQDDETGRIFLLVTHFPSKYGFWNAGLGSGFKNIDGKEYLCLYDSSGKEFTVRENVVYDKDSNKTEYTTNALGDLFKNGTKIDNINSSTAPLKAKGTSYINLVYSDDDGKTWSEPQNINFQVKKDWMKFLGIAPGRGIQIKNGEHKGRIVVPVYYTNEKGKQSSAVIYSDDSGKNWTIGESPNDNRKLENGKIINSKTLSDDAPQLTECQVVEMPNGQLKLFMRNLSGYLNIATSFDGGATWDETVEKDTNVLEPYCQLSVINYSQKVDGKDAVIFSNPNARSRSNGTVRIGLINQVGTYENGEPKYEFDWKYNKLVKPGYYAYSCLTELSNGNIGLLYEGTPSEEMSYIEMNLKYLESGANK | soluble
12 | MGSDKIHHHHHHMDVSIDSGKKKIIPFIQSGDYFFRRGVIAFRKNHLSRAVKLLERAVKLTEQEPVFHIQLAAVLSELGHYERSNDILESVVQNLDPGHSECHFFMANNYAYLGLFEKAEHCAIAYLSDQPDGEFAKDAHDLLDLLRFEKEEEGDEWENELTPTDQFLLEHEKACQLLEEGHLQEAIVLLEKLMDEEPSYWTAYNQYAQALFRLGNVEKAFEVCEHILEEDQGNLFALCNMALFYKKQGQQQQAESLIQALSAVHPMDRAHRFKVAQVLCAVGAYEQAYDRLKELEWTSISSDPEWHFCIGVAAYHLGQEEIALRYWKKAATLGVQQAADYYAMSIVDILQKEDVTYEGWHVKQKSRQNS | not soluble
13 | MSLRLNDWQLAFEAYLLGEQAQARAVLQDSLIGGPTLDVETGLAIYHNAYMARLQEVMGSDFPAIRHWLGDAEFQALTQAYIRQCPSRHFSLRWLGQGFAEFILGHLVPEQGAPLAELARLEWAFTLAFDAADAQVLTVAAMAGLDVEQWPQLQLRLAPCVQWLDCRYNSVAQWRAVKEQADFPRSALLDQQQLCLVWRADRVCRYRSLPAEEATALRGMIEQRWNFAELCVGLAVTYAEGAPLQAVTWLKQWVEDGLVMRSESEGHHHHHH | not soluble
14 | MGSDKIHHHHHHMPEEKQKKSVLEKALKRIEENFGKGSIMILGDETQVQPVEVIPTGSLAIDIATGVGGYPRGRIVEIFGQESSGKTTLALHAIAEAQKMGGVAAFIDAEHALDPVYAKNLGVDLKSLLISQPDHGEQALEIVDELVRSGVVDLIVVDSVAALVPRAEIEGAMGDMQVGLQARLMSQALRKIAGSVNKSKAVVIFTNQIRMKIGVMFGSPETTTGGLALKFYATMRMEVRRGEPIKEGKDVIGNVISVKIVKNKVAPPFKTAQTYIIYGKGIDREYELFNIAVNEGIVDRKGSWYYYTTLKGEEVSLGQGSSNAVQFLKDNPEIAGEIERRIREKYGLLSVEKEEQRKEKKSSGEEAS | not soluble
15 | MLERLKAITNLLKGALEQRSRAEEGYIREEKVKEAIELLEALERDIMEKELKLAKEALEKFDSNRKFYYLVGKLYVEVSKEEAQKLIEDELKMFGGEGK | not soluble
16 | MGSDKIHHHHHHMMSYVRMTLYHGTDRKSAEKIMESKEILPSQGDNHWLGDGIYFYEEEFHAFKWIWYKEKNRNRLLKNFAIIKAEVICEESRIFDLTKIEHKLLFDMMYKLINTTKLRLDKLRGDMCAEGVVINYMFKNKELGYNKRFDIVRALFPIPVKKYQKIENREKNKKYKERTHRLTFMPEIQVCVKNPSVIKKLEWYDLEKTIDKFLIYTEIYKEDLGI | not soluble
17 | IPIPSALEARLDAYVALLQQWQAKTNLVAPSTLPQLWTRHVADSLQLVSLMPHARRWLDFGSGGGFPGVVLACAMADVGGHVTLVERIAKKAAFLREALRVAGAPGTVILADIGDNVDRFPQALDCITARAVAPLHQLIGFAEPLMTPGTTKALFLKGQDVDAELTETTKYWKFQPKLHASVTGGQGWIVEIDHIER | not soluble
18 | MRQQTCTTVTLRQRPIRNGRISLYLDYYPAVRNPKTMKLSRREYLGFYIYATPKNAIELDYNNEILAKAELIRCRRQEAVINEEFGFMDRHKMRADFMAYFKEVCRKKDHKWHIVYLHFEKFVNGKCMFGEITVDLCNRFRDYLLHARQLKHTDKMVSRNSAASYFSLFRGVLKLAYRDKYLRENPNDFLEKIESRDIHKEFLTQDELKTLASTPCDIPVLRNASLFSCLTGLRISDILNLKWENLCTAPDLGHCIRLRTQKTQTEALLPISYEAYALCGEPGTGKVFKELRRCMTGYPLKAWIKKAGIQKHITFHCLSHSKLFYLLNISELSILKNVTANDLETSYILFLSQLCNIQRTL | not soluble
19 | MGSDKIHHHHHHMLEMKATGKSKGQWMFYRNFDDTVDYLSDHTRILSYNPFCHKVEPLDRDEAYRWHFRVTDPQNNPFDVIFNIQQETEILVDLPDEVASMDPEEMSDEMIRQFTVGRKITWRPLAQDKTFTMPEKYLFEGQVTADMLIVPVQQEQTRVDFDLWVNVAFLLYPAFRIVPEKVVRTMVSTGMSLIMQTATNHMFQKISKEFGKIRKL | not soluble
